± gives the uncertainty stated by the source.

The data set in a line: abundance fitness (aPCA) (normalised: wild type 0, dead -1); higher = more abundant; growth selection in yeast, the domain comes from the species named. Particulars: Homo sapiens.
With “Transcriptional activator Myb Q195V, P10242”, the abundance fitness amounted to 0.043 ± 0.081.

“Transcriptional activator Myb Q195W, P10242” registered an abundance fitness of -0.282 ± 0.14.

With “Transcriptional activator Myb Q195Y, P10242”, the abundance fitness was -0.26 ± 0.22.

Substance “Transcriptional activator Myb Q200A, P10242” returned an abundance fitness of 0.011 ± 0.068.

In the case of “Transcriptional activator Myb Q200C, P10242”, the abundance fitness is -0.18 ± 0.11.

Substance “Transcriptional activator Myb Q200D, P10242” yielded an abundance fitness of -0.139 ± 0.11.

On to “Transcriptional activator Myb Q200E, P10242”, for which the abundance fitness was -0.008 ± 0.082.

For the substance “Transcriptional activator Myb Q200F, P10242”, the abundance fitness is -0.302 ± 0.11.

As for “Transcriptional activator Myb Q200G, P10242”, the abundance fitness was 0.014 ± 0.049.

“Transcriptional activator Myb Q200H, P10242”: the abundance fitness was 0.003 ± 0.13.

“Transcriptional activator Myb Q200I, P10242” came in with an abundance fitness of -0.161 ± 0.11.

“Transcriptional activator Myb Q200K, P10242” registered an abundance fitness of 0.002 ± 0.088.

In turn, “Transcriptional activator Myb Q200L, P10242” showed an abundance fitness of -0.078 ± 0.067.

“Transcriptional activator Myb Q200M, P10242” came in with an abundance fitness of -0.205 ± 0.088.

The substance “Transcriptional activator Myb Q200N, P10242” gave an abundance fitness of 0.004 ± 0.11.

“Transcriptional activator Myb Q200P, P10242” registered an abundance fitness of 0.005 ± 0.1.

“Transcriptional activator Myb Q200R, P10242” came in with an abundance fitness of 0.007 ± 0.048.

On to “Transcriptional activator Myb Q200S, P10242”, for which the abundance fitness was -0.073 ± 0.06.

“Transcriptional activator Myb Q200T, P10242” showed an abundance fitness of -0.135 ± 0.072.

The substance “Transcriptional activator Myb Q200V, P10242” had an abundance fitness of -0.087 ± 0.074.

“Transcriptional activator Myb Q200W, P10242” yielded an abundance fitness of -0.345 ± 0.094.

Substance “Transcriptional activator Myb Q200Y, P10242” showed an abundance fitness of -0.259 ± 0.12.

In turn, “Transcriptional activator Myb R153C, P10242” displayed an abundance fitness of -0.451 ± 0.098.

Turning to “Transcriptional activator Myb R153D, P10242”, the abundance fitness is -0.25 ± 0.095.

For the substance “Transcriptional activator Myb R153E, P10242”, the abundance fitness was -0.144 ± 0.079.

The substance “Transcriptional activator Myb R153F, P10242” gave an abundance fitness of -0.068 ± 0.094.

In the case of “Transcriptional activator Myb R153I, P10242”, the abundance fitness is -0.284 ± 0.13.

For “Transcriptional activator Myb R153L, P10242”, the abundance fitness is -0.098 ± 0.073.

With “Transcriptional activator Myb R153M, P10242”, the abundance fitness was -0.11 ± 0.11.

Substance “Transcriptional activator Myb R153N, P10242” showed an abundance fitness of 0.02 ± 0.13.

Substance “Transcriptional activator Myb R153P, P10242” registered an abundance fitness of -1.12 ± 0.18.

Regarding “Transcriptional activator Myb R153Q, P10242”, the abundance fitness was -0.031 ± 0.092.

In turn, “Transcriptional activator Myb R153S, P10242” registered an abundance fitness of -0.121 ± 0.06.

In the case of “Transcriptional activator Myb R153T, P10242”, the abundance fitness was -0.125 ± 0.14.

“Transcriptional activator Myb R153V, P10242” registered an abundance fitness of -0.199 ± 0.084.

In turn, “Transcriptional activator Myb R153Y, P10242” showed an abundance fitness of -0.084 ± 0.11.

“Transcriptional activator Myb R176A, P10242” showed an abundance fitness of -0.217 ± 0.065.

In turn, “Transcriptional activator Myb R176C, P10242” returned an abundance fitness of -0.148 ± 0.12.

As for “Transcriptional activator Myb R176D, P10242”, the abundance fitness is -0.66 ± 0.14.

“Transcriptional activator Myb R176E, P10242” showed an abundance fitness of -0.677 ± 0.11.

Turning to “Transcriptional activator Myb R176F, P10242”, the abundance fitness is -0.733 ± 0.25.

As for “Transcriptional activator Myb R176G, P10242”, the abundance fitness was -0.728 ± 0.062.

“Transcriptional activator Myb R176H, P10242” came in with an abundance fitness of 0.043 ± 0.16.

Substance “Transcriptional activator Myb R176I, P10242” came in with an abundance fitness of -0.225 ± 0.16.

The substance “Transcriptional activator Myb R176K, P10242” registered an abundance fitness of -0.022 ± 0.097.

On to “Transcriptional activator Myb R176L, P10242”, for which the abundance fitness was -0.423 ± 0.074.

Substance “Transcriptional activator Myb R176M, P10242” yielded an abundance fitness of -0.584 ± 0.11.

Regarding “Transcriptional activator Myb R176N, P10242”, the abundance fitness is -0.905 ± 0.2.

As for “Transcriptional activator Myb R176P, P10242”, the abundance fitness was -0.87 ± 0.15.

“Transcriptional activator Myb R176Q, P10242” yielded an abundance fitness of -0.513 ± 0.16.

Consider “Transcriptional activator Myb R176S, P10242”, for which the abundance fitness is -0.457 ± 0.072.

In turn, “Transcriptional activator Myb R176T, P10242” showed an abundance fitness of -0.223 ± 0.096.

“Transcriptional activator Myb R176V, P10242” returned an abundance fitness of -0.22 ± 0.066.

In the case of “Transcriptional activator Myb R176W, P10242”, the abundance fitness was -0.436 ± 0.064.

Turning to “Transcriptional activator Myb R176Y, P10242”, the abundance fitness was -0.651 ± 0.14.

Substance “Transcriptional activator Myb R190A, P10242” returned an abundance fitness of -0.023 ± 0.07.

The substance “Transcriptional activator Myb R190C, P10242” displayed an abundance fitness of -0.117 ± 0.18.

With “Transcriptional activator Myb R190D, P10242”, the abundance fitness is -0.073 ± 0.13.

In turn, “Transcriptional activator Myb R190E, P10242” registered an abundance fitness of -0.161 ± 0.093.

Substance “Transcriptional activator Myb R190F, P10242” yielded an abundance fitness of 0.009 ± 0.13.

“Transcriptional activator Myb R190H, P10242” had an abundance fitness of -0.189 ± 0.17.

Take “Transcriptional activator Myb R190I, P10242”: the abundance fitness is -0.265 ± 0.14.

The substance “Transcriptional activator Myb R190K, P10242” registered an abundance fitness of 0.137 ± 0.12.

“Transcriptional activator Myb R190L, P10242” came in with an abundance fitness of -0.131 ± 0.061.

Regarding “Transcriptional activator Myb R190M, P10242”, the abundance fitness came out at 0.06 ± 0.14.

“Transcriptional activator Myb R190N, P10242” had an abundance fitness of -0.196 ± 0.19.

In turn, “Transcriptional activator Myb R190P, P10242” returned an abundance fitness of -0.335 ± 0.083.

As to “Transcriptional activator Myb R190Q, P10242”, the abundance fitness was found to be 0.026 ± 0.12.

The values above are taken from the Human Domainome abundance scans (Beltran et al. 2025).
